Reference: patent publication US20100260668A1 (published 2010)

T1: PlGF (UniProt P49763-2 21-149, limits assumed)
T1 construct: bought antigen coated on the ELISA plate; also called Placental GF
T1 sequence (looked up): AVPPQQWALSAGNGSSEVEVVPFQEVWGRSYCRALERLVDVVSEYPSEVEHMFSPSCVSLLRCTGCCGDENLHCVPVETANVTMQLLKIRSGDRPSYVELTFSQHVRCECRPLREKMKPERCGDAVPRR


What was measured:
VEGF = molecular target: T2, VEGF (UniProt P15692 27-191, limits assumed); assay: direct bind ELISA, C-terminal VD
T2 construct: bought antigen coated on the ELISA plate
Method: Enzyme Linked Immunosorbent Assays to screen for antibodies that bind a desired target antigen were performed as follows. […] Plates were washed four times with PBS containing 0.02% Tween 20. Plates were blocked by the addition of 300 μL/well blocking solution (non-fat dry milk powder, various retail suppliers, diluted to 2% in PBS) for ½ hour at room temperature. Plates were washed four times after blocking with PBS containing 0.02% Tween 20.
Plates were washed 4 times with PBS containing 0.02% Tween 20.

PlGF = molecular target: T1, PlGF; assay: direct bind ELISA, N-terminal VD
DLL4 = molecular target: T3, DLL4 (human, UniProt Q9NR61 27-685); assay: flow cytometry on 293G-human DLL4 cells; DLL4 VD C-terminal
T3 construct: whole, on cells; also called human DLL4

[1] = molecular target: T4, DLL4 ECD/His tag (R&D 1506-D4-050) (UniProt Q9NR61 27-529); assay: direct bind ELISA, DLL4 on plate; DLL4 VD C-term.; HC Short, LC Short
T4 construct: extracellular domain; Bought antigen coated on the ELISA plate; not shown: His tag

T2 sequence (P15692 other isoform, or with tags, fused parts or gaps limits assumed): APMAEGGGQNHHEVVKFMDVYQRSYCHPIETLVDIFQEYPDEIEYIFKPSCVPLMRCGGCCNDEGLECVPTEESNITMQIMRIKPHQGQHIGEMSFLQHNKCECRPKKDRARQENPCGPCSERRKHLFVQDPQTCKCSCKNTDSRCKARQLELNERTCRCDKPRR

Binder	EC50 (VEGF) [nM]	EC50 (PlGF) [nM]	EC50 (DLL4) [nM]	EC50 [1] [nM]
DVD043 (bispecific antibody, human IgG1, kappa, DVD-Ig; HC short, LC short linker; also called DVD043H; DVD043L) heavy: not shown light: DIQMTQSPSSLSASVGDRVTITCSASQDISNYLNWYQQKPGKAPKVLIYFTSSLHSGVPSRFSGSGSGTDFTLTISSLQPEDFATYYCQQYSTVPWTFGQGTKVEIKRTVAAPDIQMTQSPSSLSASVGDRVTITCRASQDVSTAVAWYQQKPGKAPKLLIYSASFLYSGVPSRFSGSGSGTDFTLTISSLQPEDFATTYYCQQSYTGTVTFGQGTKVEIKRTVAAPSVFIFPPSDEQLKSGTASVVCLLNNFYPREAKVQWKVDNALQSGNSQESVTEQDSKDSTYSLSSTLTLSKADYEKHKVYACEVTHQGLSSPVTKSFNRGEC	–	–	–	0.67
DVD470 (bispecific antibody, human IgG1, kappa, DVD-Ig; also called VEGF and DLL4 DVD-Ig, HC linker long, LC linker long) heavy: not shown light: DIQMTQSPSSLSASVGDRVTITCSASQDISNYLNWYQQKPGKAPKVLIYFTSSLHSGVPSRFSGSGSGTDFTLTISSLQPEDFATYYCQQYSTVPWTFGQGTKVEIKRTVAAPSVFIFPPDIQMTQSPSSLSASVGDRVTITCRASQDVSTAVAWYQQKPGKAPKLLIYSASFLYSGVPSRFSGSGSGTDFTLTISSLQPEDFATTYYCQQSYTGTVTFGQGTKVEIKRTVAAPSVFIFPPSDEQLKSGTASVVCLLNNFYPREAKVQWKVDNALQSGNSQESVTEQDSKDSTYSLSSTLTLSKADYEKHKVYACEVTHQGLSSPVTKSFNRGEC	–	–	1.72	–
DVD482 (bispecific antibody, human IgG1, kappa, DVD-Ig; also called VEGF and DLL4 DVD-Ig, HC linker short, LC linker long) heavy: not shown light: DIQMTQSPSSLSASVGDRVTITCSASQDISNYLNWYQQKPGKAPKVLIYFTSSLHSGVPSRFSGSGSGTDFTLTISSLQPEDFATYYCQQYSTVPWTFGQGTKVEIKRTVAAPSVFIFPPDIQMTQSPSSLSASVGDRVTITCRASQDVSTAVAWYQQKPGKAPKLLIYSASFLYSGVPSRFSGSGSGTDFTLTISSLQPEDFATTYYCQQSYTGTVTFGQGTKVEIKRTVAAPSVFIFPPSDEQLKSGTASVVCLLNNFYPREAKVQWKVDNALQSGNSQESVTEQDSKDSTYSLSSTLTLSKADYEKHKVYACEVTHQGLSSPVTKSFNRGEC	–	–	3.25	–
DVD543 (bispecific antibody, human IgG1, kappa, HC linker short, LC linker short; also called DVD-Ig DVD543) heavy: not shown light: AIQMTQSSSSFSVSLGDRVTITCKASEDIYNRFAWYQQKPGNAPRLLISGAASLEAGVPSRFSGSGSGQDYTLSITSLQTEDVATYYCQQYWSTPWTFGGGTKLEIKRTVAAPDIQMTQSPSSLSASVGDRVTITCRASQDVSTAVAWYQQKPGKAPKLLIYSASFLYSGVPSRFSGSGSGTDFTLTISSLQPEDFATYYCQQSYTTPPTFGQGTKVEIKRTVAAPSVFIFPPSDEQLKSGTASVVCLLNNFYPREAKVQWKVDNALQSGNSQESVTEQDSKDSTYSLSSTLTLSKADYEKHKVYACEVTHQGLSSPVTKSFNRGEC	1120	0.14	–	–
DVD581 (bispecific antibody, human IgG1, kappa, HC linker long, LC linker long; also called DVD-Ig DVD581) heavy: not shown light: DIVLTQSPDSLAVSLGERVTMNCKSSQSLLNSGMRKSFLAWYQQKPGQSPKLLIYWASTRESGVPDRFTGSGSGTDFTLTISSVQAEDVAVYYCKQSYHLFTFGSGTKLEIKRTVAAPSVFIFPPDIQMTQSPSSLSASVGDRVTITCRASQDVSTAVAWYQQKPGKAPKLLIYSASFLYSGVPSRFSGSGSGTDFTLTISSLQPEDFATYYCQQSYTTPPTFGQGTKVEIKRTVAAPSVFIFPPSDEQLKSGTASVVCLLNNFYPREAKVQWKVDNALQSGNSQESVTEQDSKDSTYSLSSTLTLSKADYEKHKVYACEVTHQGLSSPVTKSFNRGEC	35.9	0.39	–	–
DVD512 (bispecific antibody, human IgG1, lambda, L234A L235A, DVD-Ig; HC short, LC short linker; also called DVD512H; DVD512L) heavy: not shown light: DIQMTQSPSSLSASVGDRVTITCSASQDISNYLNWYQQKPGKAPKVLIYFTSSLHSGVPSRFSGSGSGTDFTLTISSLQPEDFATYYCQQYSTVPWTFGQGTKVEIKRTVAAPQAVVTQESALTTSPGETVTLTCRSSTGAVTTSNYANWVQEKPDHLFTGLIGGTNNRAPGVPARFSGSLIGDKAALTITGAQTEDEAIYFCALWYSNHWVFGGGTKLTVLGQPKAAPSVTLFPPSSEELQANKATLVCLISDFYPGAVTVAWKADSSPVKAGVETTTPSKQSNNKYAASSYLSLTPEQWKSHRSYSCQVTHEGSTVEKTVAPTECS	–	–	–	1.71
DVD551 (bispecific antibody, human IgG1, kappa, HC linker long, LC linker long; also called DVD-Ig DVD551) heavy: not shown light: AIQMTQSSSSFSVSLGDRVTITCKASEDIYNRFAWYQQKPGNAPRLLISGAASLEAGVPSRFSGSGSGQDYTLSITSLQTEDVATYYCQQYWSTPWTFGGGTKLEIKRTVAAPSVFIFPPDIQMTQSPSSLSASVGDRVTITCRASQDVSTAVAWYQQKPGKAPKLLIYSASFLYSGVPSRFSGSGSGTDFTLTISSLQPEDFATYYCQQSYTTPPTFGQGTKVEIKRTVAAPSVFIFPPSDEQLKSGTASVVCLLNNFYPREAKVQWKVDNALQSGNSQESVTEQDSKDSTYSLSSTLTLSKADYEKHKVYACEVTHQGLSSPVTKSFNRGEC	1590	97	–	–
DVD492 (bispecific antibody, human IgG1, kappa, DVD-Ig; outer AB071 (VEGF), inner AB072 (DLL4); HC short, LC short linker; also called DVD492H; DVD492L) heavy: not shown light: DIQMTQSPSSLSASVGDRVTITCRASQVIRRSLAWYQQKPGKAPKLLIYAASNLASGVPSRFSGSGSGTDFTLTISSLQPEDFATYYCQQSNTSPLTFGQGTKVEIKRTVAAPDIQMTQSSSYLSVSLGGRVTITCKASDHINNWLAWYQQKPGNAPRLLISGATSLETGVPSRFSGSGSGKDYTLSITSLQTEDVATYYCQQYWSIPLTFGAGTKLELKRTVAAPSVFIFPPSDEQLKSGTASVVCLLNNFYPREAKVQWKVDNALQSGNSQESVTEQDSKDSTYSLSSTLTLSKADYEKHKVYACEVTHQGLSSPVTKSFNRGEC	–	–	–	1.77
DVD516 (bispecific antibody, human IgG1, lambda, DVD-Ig; outer AB071 (VEGF), inner AB073 (DLL4); HC short, LC short linker; also called DVD516H; DVD516L) heavy: not shown light: DIQMTQSPSSLSASVGDRVTITCRASQVIRRSLAWYQQKPGKAPKLLIYAASNLASGVPSRFSGSGSGTDFTLTISSLQPEDFATYYCQQSNTSPLTFGQGTKVEIKRTVAAPQAVVTQESALTTSPGETVTLTCRSSTGAVTTSNYANWVQEKPDHLFTGLIGGTNNRAPGVPARFSGSLIGDKAALTITGAQTEDEAIYFCALWYSNHWVFGGGTKLTVLGQPKAAPSVTLFPPSSEELQANKATLVCLISDFYPGAVTVAWKADSSPVKAGVETTTPSKQSNNKYAASSYLSLTPEQWKSHRSYSCQVTHEGSTVEKTVAPTECS	–	–	–	4.33

More lines, now with the values ahead:

EC50 (VEGF) [nM]	EC50 (PlGF) [nM]	EC50 (DLL4) [nM]	EC50 [1] [nM]	Binder
241	1.04	–	–	DVD561 (bispecific antibody, human IgG1, kappa, outer AB074 (PlGF), inner AB071 (VEGF); HC linker long, LC linker short; also called DVD-Ig DVD561) heavy: not shown light: AIQMTQSSSSFSVSLGDRVTITCKASEDIYNRFAWYQQKPGNAPRLLISGAASLEAGVPSRFSGSGSGQDYTLSITSLQTEDVATYYCQQYWSTPWTFGGGTKLEIKRTVAAPDIQMTQSPSSLSASVGDRVTITCRASQVIRRSLAWYQQKPGKAPKLLIYAASNLASGVPSRFSGSGSGTDFTLTISSLQPEDFATYYCQQSNTSPLTFGQGTKVEIKRTVAAPSVFIFPPSDEQLKSGTASVVCLLNNFYPREAKVQWKVDNALQSGNSQESVTEQDSKDSTYSLSSTLTLSKADYEKHKVYACEVTHQGLSSPVTKSFNRGEC
–	–	11.7	–	DVD476 (bispecific antibody, human IgG1, kappa, DVD-Ig; also called VEGF and DLL4 DVD-Ig, HC linker long, LC linker short) heavy: not shown light: DIQMTQSPSSLSASVGDRVTITCSASQDISNYLNWYQQKPGKAPKVLIYFTSSLHSGVPSRFSGSGSGTDFTLTISSLQPEDFATYYCQQYSTVPWTFGQGTKVEIKRTVAAPDIQMTQSPSSLSASVGDRVTITCRASQDVSTAVAWYQQKPGKAPKLLIYSASFLYSGVPSRFSGSGSGTDFTLTISSLQPEDFATTYYCQQSYTGTVTFGQGTKVEIKRTVAAPSVFIFPPSDEQLKSGTASVVCLLNNFYPREAKVQWKVDNALQSGNSQESVTEQDSKDSTYSLSSTLTLSKADYEKHKVYACEVTHQGLSSPVTKSFNRGEC
39.2	0.13	–	–	DVD559 (bispecific antibody, human IgG1, kappa, HC linker long, LC linker short; also called DVD-Ig DVD559) heavy: not shown light: AIQMTQSSSSFSVSLGDRVTITCKASEDIYNRFAWYQQKPGNAPRLLISGAASLEAGVPSRFSGSGSGQDYTLSITSLQTEDVATYYCQQYWSTPWTFGGGTKLEIKRTVAAPDIQMTQSPSSLSASVGDRVTITCRASQDVSTAVAWYQQKPGKAPKLLIYSASFLYSGVPSRFSGSGSGTDFTLTISSLQPEDFATYYCQQSYTTPPTFGQGTKVEIKRTVAAPSVFIFPPSDEQLKSGTASVVCLLNNFYPREAKVQWKVDNALQSGNSQESVTEQDSKDSTYSLSSTLTLSKADYEKHKVYACEVTHQGLSSPVTKSFNRGEC
560	0.32	–	–	DVD583 (bispecific antibody, human IgG1, kappa, outer AB047 (PlGF), inner AB071 (VEGF); HC linker long, LC linker long; also called DVD-Ig DVD583) heavy: not shown light: DIVLTQSPDSLAVSLGERVTMNCKSSQSLLNSGMRKSFLAWYQQKPGQSPKLLIYWASTRESGVPDRFTGSGSGTDFTLTISSVQAEDVAVYYCKQSYHLFTFGSGTKLEIKRTVAAPSVFIFPPDIQMTQSPSSLSASVGDRVTITCRASQVIRRSLAWYQQKPGKAPKLLIYAASNLASGVPSRFSGSGSGTDFTLTISSLQPEDFATYYCQQSNTSPLTFGQGTKVEIKRTVAAPSVFIFPPSDEQLKSGTASVVCLLNNFYPREAKVQWKVDNALQSGNSQESVTEQDSKDSTYSLSSTLTLSKADYEKHKVYACEVTHQGLSSPVTKSFNRGEC
–	–	–	13.9	DVD446 (bispecific antibody, human IgG1, kappa, DVD-Ig; outer AB071 (VEGF), inner AB069 (DLL4); HC short, LC short linker; also called DVD446H; DVD446L) heavy: not shown light: DIQMTQSPSSLSASVGDRVTITCRASQVIRRSLAWYQQKPGKAPKLLIYAASNLASGVPSRFSGSGSGTDFTLTISSLQPEDFATYYCQQSNTSPLTFGQGTKVEIKRTVAAPDIVMTQSPDSLAVSLGERATISCRASESVDNYGISFMKWFQQKPGQPPKLLIYAASNQGSGVPDRFSGSGSGTDFTLTISSLQAEDVAVYYCQQSKEVPWTFGGGTKVEIKRTVAAPSVFIFPPSDEQLKSGTASVVCLLNNFYPREAKVQWKVDNALQSGNSQESVTEQDSKDSTYSLSSTLTLSKADYEKHKVYACEVTHQGLSSPVTKSFNRGEC
–	–	–	2.28	DVD468 (bispecific antibody, human IgG1, kappa, DVD-Ig; outer AB071 (VEGF), inner AB015 (DLL4); HC short, LC short linker; also called DVD468H; DVD468L) heavy: not shown light: DIQMTQSPSSLSASVGDRVTITCRASQVIRRSLAWYQQKPGKAPKLLIYAASNLASGVPSRFSGSGSGTDFTLTISSLQPEDFATYYCQQSNTSPLTFGQGTKVEIKRTVAAPDIQMTQSPSSLSASVGDRVTITCRASQDVSTAVAWYQQKPGKAPKLLIYSASFLYSGVPSRFSGSGSGTDFTLTISSLQPEDFATTYYCQQSYTGTVTFGQGTKVEIKRTVAAPSVFIFPPSDEQLKSGTASVVCLLNNFYPREAKVQWKVDNALQSGNSQESVTEQDSKDSTYSLSSTLTLSKADYEKHKVYACEVTHQGLSSPVTKSFNRGEC
